Measurements taken from EP4803098A1 (Shandong Boan Biotechnology Co., Ltd., dated 2025).
Residue numbers refer to the chain shown, from its start. Where two headings read alike, the source gives them in different places. Values belong to the binder of their own block, whether it stands above or below them.

Key:
hGIPR-His protein [1] = target: T1, hGIPR-His protein (human, UniProt P48546 22-138); test: BLI (Octet), antibody captured on FAB2G sensor, hGIPR-His in solution
T1 chain: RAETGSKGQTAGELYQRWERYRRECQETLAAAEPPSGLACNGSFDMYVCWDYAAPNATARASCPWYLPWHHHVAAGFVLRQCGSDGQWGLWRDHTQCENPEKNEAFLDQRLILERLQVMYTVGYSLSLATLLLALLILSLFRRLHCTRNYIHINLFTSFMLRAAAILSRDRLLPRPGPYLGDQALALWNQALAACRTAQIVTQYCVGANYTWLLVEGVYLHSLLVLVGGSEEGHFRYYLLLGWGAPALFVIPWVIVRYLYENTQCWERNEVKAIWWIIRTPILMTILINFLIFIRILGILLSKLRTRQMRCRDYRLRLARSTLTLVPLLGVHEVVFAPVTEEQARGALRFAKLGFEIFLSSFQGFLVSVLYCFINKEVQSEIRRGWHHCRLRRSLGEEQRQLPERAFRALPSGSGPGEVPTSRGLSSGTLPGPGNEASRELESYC

[2] = target: T2, GIPR on CHOK1-GIPR/GLP-1R cells (human, UniProt P48546 22-466); test: flow cytometry on CHOK1-GIPR/GLP-1R cells
T2 construct: whole, on cells; also called CHOK1-hGIPR cells
T2 sequence (looked up): T1 chain

mGIPR-Fc protein = target: T3, mGIPR-Fc protein (mouse, UniProt Q0P543 19-134, limits assumed); test: ELISA, mGIPR-Fc coated
T3 construct: also called mouse GIPR-Fc protein; not shown: Fc part
T3 sequence (looked up): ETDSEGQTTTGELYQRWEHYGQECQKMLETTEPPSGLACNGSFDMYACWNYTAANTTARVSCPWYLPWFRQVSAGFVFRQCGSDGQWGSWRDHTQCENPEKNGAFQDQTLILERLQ

hGIPR-His protein [3] = target: T1, hGIPR-His protein; test: BLI (Octet), antibody captured on FAB2G sensor, hGIPR-His in solution, 1:1 model
[4] = target: T2, GIPR on CHOK1-GIPR/GLP-1R cells; test: cell-based or functional assay
[5] = target: T2, GIPR on CHOK1-GIPR/GLP-1R cells; test: flow cytometry on CHOK1-GIPR/GLP-1R cells (run with CE947)
[6] = target: T2, GIPR on CHOK1-GIPR/GLP-1R cells; test: cell-based or functional assay; remark: listed apart in the source
[7] = target: T2, GIPR on CHOK1-GIPR/GLP-1R cells; test: flow cytometry on CHOK1-GIPR/GLP-1R cells (run with CA360)
[8] = target: T2, GIPR on CHOK1-GIPR/GLP-1R cells; test: flow cytometry on CHOK1-GIPR/GLP-1R cells (run with CE560)
[9] = target: T2, GIPR on CHOK1-GIPR/GLP-1R cells; test: flow cytometry on CHOK1-GIPR/GLP-1R cells (run with BA191)

B1: BA191 (antibody, human IgG1, kappa, L234A L235A, V domains shown)
VH: EVQLVQSGAEVKKPGSSVKVSCKASGGTFSTFSSYAISWVRQAPGQGLEWMGRIIPILGIGNNAQKFQGRVTITADKSTSTAYMELSSLRSEDTAVYYCAREKDWGHFDYWGQGTLVTVSS
VL: DIQMTQSPSSLSASVGDRVTITCRASQGISNYLAWFQQKPGKAPKSLIYAASSLQSGVPSKFSGSGSGTDFTLTISSLQPEDFATYYCQQYNSYPITFGQGTRLEIKR
notes: also called GIPR antibody BA191
- Response (hGIPR-His protein [1]): 0.246
- EC50 [2]: 0.091 µg/mL
- Maximum binding value (RFU) [2]: 17600 RFU
- binding result (mGIPR-Fc protein): no binding (tested: starting from 0.2 µg/mL)
- Kd (hGIPR-His protein [3]): 4.28 nM
- IC50 (µg/mL), cAMP content [4]: 0.04 µg/mL

B3: 2G10 (antibody, V domains shown)
VH: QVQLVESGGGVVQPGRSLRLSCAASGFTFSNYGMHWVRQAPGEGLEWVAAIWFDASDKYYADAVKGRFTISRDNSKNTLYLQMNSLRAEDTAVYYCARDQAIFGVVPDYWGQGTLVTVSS
VL: EIVMTQSPATLSVSPGERATLSCRASQSVSSNLAWYQQKPGQAPRLLIYGAATRATGIPARVSGSGSGTEFTLTISSLQSEDFAVYYCQQYNNWPLTFGGGTKVEIKR
notes: also called control group 2G10
- Response (hGIPR-His protein [1]): 0.142
- EC50 [5]: 0.213 µg/mL
- IC50 (µg/mL), cAMP content [6]: 0.21 µg/mL
- EC50 [7]: 0.213 µg/mL
- EC50 [8]: 0.263 µg/mL
- Kd (hGIPR-His protein [3]): 12.6 nM
- EC50 [9]: 0.151 µg/mL
- IC50 (µg/mL), cAMP content [4]: 0.3 µg/mL

Stronger by Kd (hGIPR-His protein [3]), values ahead:

- Response (hGIPR-His protein [1]): 0.246
- IC50 (µg/mL), cAMP content [6]: 0.2 µg/mL
- EC50 [2]: 0.328 µg/mL
- Maximum binding value (RFU) [2]: 281000 RFU
- Kd (hGIPR-His protein [3]): 3.07 nM
B4: CA360 (antibody, human IgG1, kappa, L234A L235A, V domains shown)
VH: EVQLVQSGAEVKKPGSSVKVSCKASGGTFSGYPINWVRQAPGQGLEWMGRIIPIPGIPNYAQKFQDRVTITADKFANTAYMELSSLRSEDTAVYYCARDPLGPYVFDIWGQGTMVTVSS
VL: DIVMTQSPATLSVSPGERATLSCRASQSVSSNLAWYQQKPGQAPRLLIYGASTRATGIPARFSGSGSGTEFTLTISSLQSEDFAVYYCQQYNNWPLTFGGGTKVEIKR
notes: also called GIPR antibody CA360

- Response (hGIPR-His protein [1]): 0.222
- IC50 (µg/mL), cAMP content [6]: 0.14 µg/mL
- EC50 [2]: 0.206 µg/mL
- Maximum binding value (RFU) [2]: 492000 RFU
- Kd (hGIPR-His protein [3]): 2.63 nM
B5: CE560 (antibody, human IgG1, kappa, L234A L235A, V domains shown)
VH: EVQLVQSGAEVKKPGSSVKVSCKASGGTFNNYAISWVRQAPGQGLEWMGRIIPFLDIASYAQKFQGKVTITADKSTSTAYMELSSLRSEDTAVYYCAREVDWGWFDSWGQGTLVTVSS
VL: IQMTQSPSSLSASVGDRVTITCRASQGISSYLAWYQQKPGKAPKLLIYAASTLQSGVPSRFSGSGSGTDFTLTISSLQPEDFATYYCQQLNSYPLTFGGGTKVEIKR
notes: also called GIPR antibody CE560
- binding result (mGIPR-Fc protein): no binding (tested: starting from 0.2 µg/mL)

- Response (hGIPR-His protein [1]): 0.19
- EC50 [2]: 0.131 µg/mL
- Maximum binding value (RFU) [2]: 311000 RFU
- Kd (hGIPR-His protein [3]): 1.13 nM
- IC50 (µg/mL), cAMP content [4]: 0.05 µg/mL
B2: CE947 (antibody, human IgG1, kappa, L234A L235A, V domains shown)
VH: B5 VH with Y60N
VL: B1 VL with K61R, S77N, Q89L, N92Y, S93D, I96L, Q100G, R103K
notes: also called GIPR antibody CE947
- binding result (mGIPR-Fc protein): no binding (tested: starting from 0.2 µg/mL)
